Legend:
[1] = biological target: T1, MtrA Y102C (unphosphorylated) Y102C (UniProt P9WGM7); assay: EMSA; conditions: 50 mM Tris-HCl pH 7.5, 50 mM NaCl, 10 mM MgCl2, 10 mM CaCl2, […]
T1 sequence: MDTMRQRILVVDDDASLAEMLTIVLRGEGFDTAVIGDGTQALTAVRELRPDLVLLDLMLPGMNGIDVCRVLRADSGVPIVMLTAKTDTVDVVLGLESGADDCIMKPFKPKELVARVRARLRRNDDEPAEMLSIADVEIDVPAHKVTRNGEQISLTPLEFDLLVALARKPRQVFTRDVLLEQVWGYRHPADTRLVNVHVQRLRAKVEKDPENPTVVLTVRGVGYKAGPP

MtrA Y102C~P Y102C = biological target: T2, MtrA Y102C~P Y102C (UniProt P9WGM7); assay: EMSA; conditions: 50 mM Tris-HCl pH 7.5, 50 mM NaCl, 10 mM MgCl2, 10 mM CaCl2, […]
T2 sequence: T1 sequence

CTGTGCAGAGTAGGTGATCGGCGGCCCGACCGCGAGGAGCCGCGCTGTGACTGGCGGGACGAAAGTTACAGATGAAGATATTTGCGTCCGGTGTCGGTGAGCACGCTGCGCAGGATGGTTTCGATGGTGTCGAACTCGGGCTGTCCGCTAATCAGCGGGGGAGCCACCTGGACGACGGGGTCCCCGCGGTCGTCGGTG (double strand) [PdacB1]
binding [1]: binds | binding (MtrA Y102C~P Y102C): binds
